Numbering of substitutions follows the chain as printed. Numbers in names are those of the source.
B1: periplasmic domain of ExbD from Escherichia coli, residues 43-141 (ExbD^(Ec, peri)) (domain or fragment, UniProt P0ABV2 43-141, looked up)
chain: VDVKVNLPASTSTPQPRPEKPVYLSVKADNSMFIGNDPVTDETMITALNALTEGKKDTTIFFRADKTVDYETLMKVMDTLHQAGYLKIGLVGEETAKAK
notes: ExbD of Escherichia coli, periplasmic domain, residues 43-141; not shown: His-tag, N-terminal, cleaved
B2: ExbD^(Ec, peri) V47C (domain or fragment, Escherichia coli, UniProt P0ABV2 43-141, looked up)
chain: B1 chain with V5C
modifications: disulfide bridge between the Cys 47 of the two subunits
notes: ExbD of Escherichia coli, periplasmic domain, residues 43-141, with V47C; not shown: His-tag, N-terminal, cleaved
B3: ExbD construct from E. coli lacking the N-terminal residues 43-60 (ExbD^(Ec, ΔNIBS)) (domain or fragment, Escherichia coli, UniProt P0ABV2 61-141, looked up)
chain: EKPVYLSVKADNSMFIGNDPVTDETMITALNALTEGKKDTTIFFRADKTVDYETLMKVMDTLHQAGYLKIGLVGEETAKAK
notes: ExbD of Escherichia coli, periplasmic domain (43-141) lacking the N-terminal residues 43-60; the limits 61-141 are worked out from these two statements; not shown: His-tag, N-terminal, cleaved
B4: periplasmic domain of ExbD from Serratia marcescens, residues 43-140 (ExbD^(Sm, peri)) (domain or fragment, UniProt V5YUQ0 43-140, looked up)
chain: VDIRVDLPASSAKPQPRPEKPVFLSVKADKQLYVGDQPVNADQLTSVLDQRTQANKETTIFFQADKSVDYETLMSVMDTLRKAGYLKVGLVGMEGAAK
notes: ExbD of Serratia marcescens (Has system), periplasmic domain, residues 43-140; 15N- or 13C,15N-labelled in the NMR samples; also called ExbD^(Sm, peri) wild type (wt); not shown: His-tag, N-terminal, cleaved
B5: ExbD^(Sm, peri) V47C (domain or fragment)
chain: B4 chain with V5C
modifications: disulfide bridge between the Cys 47 of the two subunits
notes: ExbD of Serratia marcescens, periplasmic domain, residues 43-140, with V47C; also called disulfide-bridged ExbD^(Sm, peri) V47C mutant; not shown: His-tag, N-terminal, cleaved

Tests used:
[1] = biological target: the molecule itself; test: AUC; sedimentation velocity, 100 μM ExbD^(Ec, peri) with 300 μM TonB peptide, 42000 rpm overnight, 50 mM sodium phosphate, 50 mM NaCl, pH 7.0
[2] = biological target: T1, periplasmic part of TonB from Escherichia coli, residues 34-239 (TonB^(Ec, peri)) (Escherichia coli, UniProt P02929 34-239); test: NMR titration; 2D [1H-15N]-TROSY spectra of 15N-labeled HasB^(Sm, peri) or TonB^(Ec, peri) alone and upon addition of the unlabeled ExbD periplasmic domain; 293 K; conditions: both partners purified
T1 construct: TonB of Escherichia coli, residues 34-239; 15N-labelled in the NMR experiment; not shown: His-tag, N-terminal, cleaved
T1 sequence (P02929 34-239): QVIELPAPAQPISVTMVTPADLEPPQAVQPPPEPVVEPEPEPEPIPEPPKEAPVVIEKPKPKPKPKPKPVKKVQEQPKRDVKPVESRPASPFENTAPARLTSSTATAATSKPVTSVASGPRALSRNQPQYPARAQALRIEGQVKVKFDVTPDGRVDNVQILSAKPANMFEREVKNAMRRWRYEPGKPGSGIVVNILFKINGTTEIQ

[3] = biological target: the molecule itself; test: NMR spectra of a disulfide-bridged mutant; NMR fingerprint spectra of the V47C mutants compared with the wild type (Supplementary Fig. 7)
[4] = biological target: the molecule itself; test: crystal structure; 2 mM ExbD^(Ec, ΔNIBS) with 10 mM TonB peptide in 50 mM Tris-HCl, 50 mM NaCl, pH 7.0; crystals in 10% w/v glycerol and 3 M ammonium sulfate, 18 °C; 1.5 Å
[5] = biological target: the molecule itself; test: AUC; sedimentation velocity, 100 μM ExbD alone, 42000 rpm overnight, 50 mM sodium phosphate, 50 mM NaCl, pH 7.0; c(S) model in SEDFIT
[6] = biological target: T2, periplasmic part of HasB from Serratia marcescens, residues 37-263 (HasB^(Sm, peri)) (Serratia marcescens, UniProt Q79AD1 37-263); test: NMR titration; 2D [1H-15N]-TROSY spectra of 15N-labeled HasB^(Sm, peri) or TonB^(Ec, peri) alone and upon addition of the unlabeled ExbD periplasmic domain; 293 K; conditions: both partners purified
T2 construct: HasB, the TonB paralog of the Heme Acquisition System of Serratia marcescens, residues 37-263; 15N-labelled in the NMR experiment; also called HasB_(37-263, Sm); source: bacterial expression (20 h at 30 °C), purified (cation exchange, SEC)
T2 sequence (looked up): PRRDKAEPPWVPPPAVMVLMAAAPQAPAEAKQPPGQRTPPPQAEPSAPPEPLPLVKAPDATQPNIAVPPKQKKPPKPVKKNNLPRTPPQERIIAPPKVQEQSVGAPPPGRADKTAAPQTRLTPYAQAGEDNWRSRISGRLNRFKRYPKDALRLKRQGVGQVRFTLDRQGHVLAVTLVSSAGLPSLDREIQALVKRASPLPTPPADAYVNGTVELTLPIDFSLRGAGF

[7] = biological target: B1; test: NMR titration; 2D [1H-15N]-HMQC spectra of 15N-labeled ExbD periplasmic domain with and without the HasB or TonB peptide; 293 K; conditions: both partners purified
[8] = biological target: B3; test: crystal structure; 2 mM ExbD^(Ec, ΔNIBS) with 10 mM TonB peptide in 50 mM Tris-HCl, 50 mM NaCl, pH 7.0; crystals in 10% w/v glycerol and 3 M ammonium sulfate, 18 °C; 1.5 Å; conditions: both partners purified

In the case of B1, the “stoichiometry N” value [1] is reported as 2 and the binding result [2] is reported as “binds”.

B2: binds [3].

B3: binds [4].

For B4, the “stoichiometry N” value [5] was 2 and the binding result [6] was “binds”.

B5: binds [3].

KKAQPISVTMVTPADLEPPQAKK (Probably a synthetic peptide) [TonB peptide (KKAQPISVTMVTPADLEPPQAKK)]: binds [7]; binds [8].

— PMC10771500, “Ton motor conformational switch and peptidoglycan role in bacterial nutrient uptake” (Nature Communications, 2024)
